Experiments:
[1] = tested on: pE2S six-finger protein (synthetic (Zif268/Sp1C framework)); test: footprint; details: DNase I footprint, 10 uM Zn, 4 C, mean of three; protected exactly the 18 bp site
[2] = tested on: gg1 six-finger protein (synthetic); details: CITED ref 40 (Graslund 2005); cited from earlier work
[3] = tested on: pE2S six-finger protein (synthetic (Zif268/Sp1C framework)); test: EMSA

## ERBB-2 promoter fragment, 267 bp (-209 to +3)
[1]
  Kd: 14 nM

## GTCAAGGCAAGGCTGGCC (double strand) [gg1 target site]
[2]
  Kd: 0.7 nM

## CGGGGGGCTCCCCTGGTT (double strand) [E2S target site]
[3]
  Kd: 3.25 nM
